# Results: paper PMC7145534, “Are the intrinsically disordered linkers involved in SSB binding to accessory proteins?” (Nucleic Acids Research, 2019)
# Entries after “also recorded” stand apart in the source; their conditions may differ.
# T1: Escherichia coli RecO protein (E. coli, UniProt P0A7H3 1-242)
# T1 construct: E. coli RecO, recombination mediator of the RecF pathway; source: E. coli BL21(DE3)pLysS, plasmid pMCSG7, purified (Ni-NTA, HiTrap Heparin HP) after His-tag cleavage with TEV protease
# T1 sequence (looked up): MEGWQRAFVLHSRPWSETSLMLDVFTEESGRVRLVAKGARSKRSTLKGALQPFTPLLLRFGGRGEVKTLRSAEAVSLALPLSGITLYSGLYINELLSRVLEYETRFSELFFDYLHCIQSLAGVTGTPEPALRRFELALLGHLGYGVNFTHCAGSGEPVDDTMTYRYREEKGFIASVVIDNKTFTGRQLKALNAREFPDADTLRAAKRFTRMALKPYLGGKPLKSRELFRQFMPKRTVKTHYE
# T2: Escherichia coli PriC (E. coli, UniProt P23862 1-175)
# T2 construct: E. coli PriC, replication restart protein; source: E. coli BL21(DE3), plasmid pET11a-EcoPriC (pAM001), purified (Macro-Prep High S, HiPrep Sephacryl S-200 HR)
# T2 sequence (looked up): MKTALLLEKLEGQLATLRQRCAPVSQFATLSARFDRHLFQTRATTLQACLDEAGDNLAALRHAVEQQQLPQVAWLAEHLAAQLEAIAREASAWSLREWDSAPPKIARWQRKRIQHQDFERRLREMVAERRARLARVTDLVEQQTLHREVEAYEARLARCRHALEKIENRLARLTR
# B1: SSBΔ120-166 tetramer (natural protein, E. coli, UniProt P0AGE0 1-178, looked up)
# chain: MASRGVNKVILVGNLGQDPEVRYMPNGGAVANITLATSESWRDKATGEMKEQTEWHRVVLFGKLAEVASEYLRKGSQVYIEGQLRTRKWTDQSGQDRYTTEVVVNVGGTMQMLGGRQGGGPPMDFDDDIPF
# notes: E. coli SSB with residues 120-166 of the IDL deleted, acidic tip kept; All three PXXP motifs deleted; only nine residues of the IDL left; Used apo and in complex with (dT)70
# B2: SSB-Ct peptide P15 (C-terminal 15 amino acids of E. coli SSB) (peptide, UniProt P0AGE0 164-178, looked up)
# peptide: PSNEPPMDFDDDIPF
# notes: E. coli SSB, the C-terminal 15 amino acids; Holds none of the PXXP motifs; also called acidic tip peptide; source: synthetic peptide; bought: WatsonBio
# B3: (dT)70 (ssDNA)
# DNA: TTTTTTTTTTTTTTTTTTTTTTTTTTTTTTTTTTTTTTTTTTTTTTTTTTTTTTTTTTTTTTTTTTTTTT
# Key:
# E. coli RecO = experiment: ITC of SSB tetramers (apo) binding to RecO; design: species or system Escherichia coli
# Description: The concentrations were determined thereafter.
# (dT)70 = experiment: ITC of SSB tetramers with (dT)70; assay type: binding
# Description: Isothermal titration calorimetry (ITC) experiments were performed using a VP-ITC titration microcalorimeter (Malvern Panalytical, Malvern, UK) ([68]). All proteins and oligonucleotides were dialyzed extensively against the indicated buffer and cleared by centrifugation at 14 000 rpm for 15 min at 4°C. The concentrations were determined thereafter. For experiments with the SSB-Ct peptides and SIPs, 40–50 μM peptides were titrated into 1–2 μM SIPs in Buffer BTP at pH 8.0 and 50 mM NaCl. For experiments with the full-length SSB and its deletion mutants and SIPs, SSB tetramer (8–10 μM) was titrated into SIP (1 μM) in Buffer BTP at pH 7.0 and 200 mM NaCl. The heats of dilution were obtained by blank titrations in which the titrant species is titrated into the buffer, and corrections for heats of dilution were applied.
# RecO (1 µM) in buffer BTP (pH 7.0, 200 mM NaCl) at 15° C and (b) 25° C.
# (f) (dT)70 (15 µM) is titrated into
# RecO = settings: for sedimentation coefficient, SSB alone: 0.35 μM tetramer, BTP pH 7.0, 200 mM NaCl, 25°C, no RecO
# Description: Sedimentation velocity experiments were performed with an Optima XL-A analytical ultracentrifuge and An50Ti rotor (Beckman Coulter, Fullerton, CA, USA) at 42 000 rpm (25°C) as described ([50]). The concentrations used were 1–2 μM SIPs, 0.3–0.5 μM SSB tetramers, while monitoring absorbance at 230 or 280 nm. The experiments with SSB-Ct peptides were performed in Buffer BTP at pH 8.0 and 50 mM NaCl. The experiment with SSB proteins and the deletion constructs were performed in Buffer BTP at pH 7.0 and 200 mm NaCl. The sample (380 μl) and buffer (394 μl) were loaded into each sector of an Epon charcoal-filled two-sector centerpiece. Absorbance data were collected by scanning the sample cells at intervals of 0.003 cm. Data were analyzed using SEDFIT, to obtain c(s) distributions ([70]). The c(s) distribution function defines the populations of species with different sedimentation rates and represents a variant of the distribution of Lamm equation solutions ([70]). The density and viscosity of the experimental buffers at 25°C were determined using [sequence] […] The partial specific volume of (dT)70 used was 0.56 ml/g. In the experiments involving more than one species, the partial specific volumes of complexes were calculated assuming additivity using Equation (4), where = number of moles of species ‘i’, = molecular weight of species ‘i’, and = partial specific volume of each species i.(4)
# RecO binding to SSB tetramers with portions of the IDL deleted. […] (C) The results of sedimentation velocity experiments, plotted as the c(s) distribution ([70]) for each SSB construct (0.35 μM tetramer) in the absence (black lines) and presence (red lines) of 2.5 molar excess of RecO (3.5 μM) per C-terminus.
# [1] = molecular target: Escherichia coli PriC (E. coli) (UniProt P23862); experiment: AUC; sedimentation velocity, 42 000 rpm, 25°C; PriC at 2 μM, without and with 30-fold excess P15; buffer BTP pH 8.0, same conditions as the ITC of PriC
# PriA = settings: previous study; cited from earlier work
# Description: All binding reactions were performed under identical solution conditions, although additional experiments were performed at a lower [NaCl] for PriC as indicated, ...
# DNA Pol III (χ) = settings: cited from earlier work
# Text: When DNA is bound to the DBD, the acidic tip no longer interacts with the DBD and thus is more available to interact with a SIP. This is supported by the observation that ΔH = −6.0 ± 0.1 kcal/mol for RecO binding to the SSBΔ120-166–(dT)70 complex, which should not contain contributions from the acidic tip-DBD intramolecular interactions.
# χ = experiment: ITC of SSB-A binding to χ; design: species or system Escherichia coli; settings: Buffer T pH 8.1, 200 mM NaCl, 25°C
# Description: The concentrations were determined thereafter. […]
# Figure S7. Results from various control ITC titrations of (a) SSB-A and RecO at 15°C and (b) 25°C, (c) SSB-A and c, (d) P65 and (dT)70, (e) (dT)70 and SSB-A, and (f) (dT)70 and wtSSB. (a) SSB-A (10 µM), a homo-tetrameric SSB variant containing an additional six amino acids, TGASGT, at the C-terminus of each subunit, was titrated into […]
# (5.9 µM) was titrated into c (1 µM) in buffer T (10 mM Tris-HCl, pH 8.1, 200 mM NaCl, […]
# 0.1 mM EDTA) at 25° C. […] (d) dT70 (60 µM) was […]
# titrated into P65 (2 µM) in buffer BTP (pH 7.0, 20 mM NaCl) at 25° C. P65, the full-length […]
# (dT)70. (e) (dT)70 (15 µM) was titrated into SSB-A (1 µM) in buffer T at 25° C. SSB-A (also on this page, place not known: 15°C 25°C. 25°C. 25°C. 25°C. 2.00 kcal mol-1 of injectant kcal mol-1 of injectant [SSB-A]tot/[RecO]tot kcal mol-1 of injectant [SSB-A]tot/[c]tot (f)(d))
# [2] = molecular target: Escherichia coli RecO protein (E. coli) (UniProt P0A7H3); experiment: ITC; SSB tetramer (10 µM) titrated into RecO (1 µM); buffer BTP pH 7.0, 200 mM NaCl, 10°C; N floated, N = RecO per SSB tetramer; ΔH per C-terminus
# [3] = molecular target: Escherichia coli RecO protein (E. coli) (UniProt P0A7H3); experiment: ITC; apo SSB tetramer (9–10 μM) titrated into RecO (1 μM); buffer BTP pH 7.0, 200 mM NaCl, 25°C; N fixed to 4 RecO per tetramer, K and ΔH per C-terminus
# [4] = molecular target: the molecule itself; experiment: AUC; sedimentation velocity, 42 000 rpm, 25°C; SSB construct 0.35 μM tetramer alone and with 3.5 μM RecO (2.5 molar excess per C-terminus); buffer BTP pH 7.0, 200 mM NaCl
# [5] = molecular target: Escherichia coli RecO protein (E. coli) (UniProt P0A7H3); experiment: ITC; SSB tetramer–(dT)70 complex (9–10 μM) titrated into RecO (1 μM); buffer BTP pH 7.0, 200 mM NaCl, 25°C; N fixed to 4, K and ΔH per C-terminus
# [6] = molecular target: Escherichia coli RecO protein (E. coli) (UniProt P0A7H3); experiment: ITC; apo SSBΔ120-166 tetramer and RecO; 10°C; N fixed to 4 in Table 3
# [7] = molecular target: T1, Escherichia coli RecO protein; experiment: ITC; P15 and RecO; buffer BTP pH 7.0, 200 mM NaCl, 25°C; N fixed to 1; settings: both partners purified
# [8] = molecular target: T1, Escherichia coli RecO protein; experiment: ITC; P15 and RecO; buffer BTP pH 7.0, 200 mM NaCl, 15°C; N fixed to 1; settings: both partners purified
# Escherichia coli PriC [9] = molecular target: T2, Escherichia coli PriC; experiment: ITC; SSB-Ct peptide titrated into PriC; buffer BTP pH 8.0, 10 mM NaCl, 25°C; N fixed to 1 for the values of Table 1; settings: both partners purified
# [10] = molecular target: T3, chi (χ) subunit of DNA polymerase III (E. coli, UniProt P28905 1-147); experiment: ITC; SSB-Ct peptide (40–50 μM) titrated into SIP (1–2 μM); buffer BTP (20 mM Bis-Tris Propane, 25% glycerol, 1 mM TCEP) pH 8.0, 50 mM NaCl, 25°C; observed association constants; N fixed to 1 for the values of Table 1; settings: both partners purified
# T3 construct: E. coli DNA polymerase III chi subunit; also called χ protein; DNA Pol III (χ)
# [11] = molecular target: T1, Escherichia coli RecO protein; experiment: as above; settings: both partners purified
# Escherichia coli PriA [12] = molecular target: T4, Escherichia coli PriA (E. coli, UniProt P17888 1-732); experiment: as above; settings: both partners purified
# T4 construct: E. coli PriA, replication restart protein
# [13] = molecular target: T1, Escherichia coli RecO protein; experiment: ITC; P15 and RecO; buffer BTP pH 8, 200 mM NaCl, 25°C; N fixed to 1; settings: both partners purified
# [14] = molecular target: T3, chi (χ) subunit of DNA polymerase III; experiment: ITC; SSB-Ct peptide (40–50 μM) titrated into SIP (1–2 μM); buffer BTP (20 mM Bis-Tris Propane, 25% glycerol, 1 mM TCEP) pH 8.0, 50 mM NaCl, 25°C; observed association constants; N fixed to 1 for the values of Table 1; settings: both partners purified; remark: listed apart in the source
# [15] = molecular target: T1, Escherichia coli RecO protein; experiment: as above; settings: both partners purified; remark: listed apart in the source
# Escherichia coli PriA [16] = molecular target: T4, Escherichia coli PriA; experiment: as above; settings: both partners purified; remark: listed apart in the source
# [17] = molecular target: T1, Escherichia coli RecO protein; experiment: ITC; P15 and RecO; buffer BTP pH 7.0, 200 mM NaCl, 37°C; N fixed to 1; settings: both partners purified
# Escherichia coli PriC [18] = molecular target: T2, Escherichia coli PriC; experiment: ITC; SSB-Ct peptide titrated into PriC; buffer BTP pH 8.0, 10 mM NaCl, 25°C; N fixed to 1 for the values of Table 1; settings: both partners purified; remark: listed apart in the source
# SSB (wtSSB) = SSB (wtSSB) (Escherichia coli, UniProt P0AGE0 2-178); experiment: ITC; 1:1 complex at 200 mM NaCl, (SSB)65 mode; (dT)70 (15 uM) titrated with SSB; ITC; buffer BTP (20 mM Bis-Tris propane, 25% v/v glycerol, 1 mM TCEP), pH 7.0, 200 mM NaCl, 25 C for SSB experiments; buffer/pH of individual (dT)70 titrations; settings: protein: recombinant; chain copies: 4; single-stranded
# [19] = molecular target: P65 (SSB C-terminal peptide) (Escherichia coli, UniProt P0AGE0 114-178); experiment: ITC; no detectable interaction; ITC; buffer BTP (20 mM Bis-Tris propane, 25% v/v glycerol, 1 mM TCEP), pH 7.0, 200 mM NaCl, 25 C for SSB experiments; buffer/pH of individual (dT)70 titrations; settings: single-stranded
# SSB-A = SSB-A (Escherichia coli, UniProt P0AGE0 2-178+=TGASGT, internal_change); experiment: ITC; (dT)70 titrated with SSB-A; stoichiometric binding, 1:1; dH similar to wtSSB (-131 kcal/mol in earlier work); ITC; buffer BTP (20 mM Bis-Tris propane, 25% v/v glycerol, 1 mM TCEP), pH 7.0, 200 mM NaCl, 25 C for SSB experiments; buffer/pH of individual (dT)70 titrations; settings: protein: recombinant; chain copies: 4; single-stranded
molecule,measurement,setting,value
"wtSSB: E. coli single strand DNA binding protein, homo-tetramer, wild type",K,"E. coli RecO; apo, 25°C, BTP pH 7, 200 mM NaCl",(1.5 ± 0.2) × 10^6 M^−1
same,binding to (dT)70 by ITC,"(dT)70; BTP pH 7.0, 200 mM NaCl",binds stoichiometrically
same,"sedimentation coefficient, SSB alone",RecO,1.4 S
same,complex formation with RecO,RecO; 10-fold molar excess of RecO to SSB tetramer,RecO forms complexes with wtSSB
Escherichia coli PriC (from UniProt P23862 1-175) (natural protein),percent of the monomeric species,[1],48.1%
MDFDDDIPF [P9],binding to PriA,PriA,binds with specificity
same,affinity and ΔH for χ binding versus (dT)70-bound SSB,DNA Pol III (χ),very similar
same,binding to χ,DNA Pol III (χ); previous study,binds with specificity
"SSB-A: additional six amino acids, TGASGT, extending the C-terminus of wtSSB",binding to RecO by ITC,"E. coli RecO; absence of ssDNA, BTP pH 7.0, 200 mM NaCl, 15°C and 25°C",not interact with RecO; also recorded: eliminates binding to RecO
same,binding to (dT)70 by ITC,"(dT)70; Buffer T pH 8.1, 200 mM NaCl, 25°C",binds stoichiometrically
same,binding to χ by ITC,χ,does not show binding
B1,K (observed association equilibrium constant),"E. coli RecO; apo, 25°C, BTP pH 7.0, 200 mM NaCl, N fixed to 4",Not detected
same,RecO binding detected by ITC,"E. coli RecO; apo, 25°C, pH 7.0, 200 mM NaCl",undetectable; also recorded: could not be detected
same,Ka,[2],373000 M⁻¹
same,stoichiometry N,[2],4.03
same,"dH (per tip, ΔH/4)",[3],0 kcal/mol
same,stoichiometry N,[4],4
same,"sedimentation coefficient, SSB alone",RecO,1.3 S
same,"dH (per tip, ΔH/4)",[5],-6 kcal/mol
same,Ka,[6],370000 M⁻¹
same,"dH (per tip, ΔH/4)",[6],-8.1 kcal/mol
B2,dH,[7],-6 ± 0.2 kcal/mol
same,dH,[8],-2.4 ± 0.2 kcal/mol
same,stoichiometry N,Escherichia coli PriC [9],1
same,dH,[10],-9.3 ± 0.1 kcal/mol
same,dH,[11],-5.2 ± 0.1 kcal/mol
same,dH,Escherichia coli PriA [12],-9.6 ± 0.3 kcal/mol
same,dH,[13],-3.9 ± 0.1 kcal/mol
same,stoichiometry N,[14],1
same,stoichiometry N,[15],1
same,stoichiometry N,Escherichia coli PriA [16],1
same,dH,[17],-7.8 ± 0.8 kcal/mol
same,dH,Escherichia coli PriC [18],-2.7 ± 0.1 kcal/mol
B3,binding result,SSB (wtSSB),binds
same,binding result,[19],no binding
same,binding result,SSB-A,binds
